Experimental data as given in patent US9759725B2, “Treatment-induced damage to the tumor micro-environment promotes cancer therapy resistance through extracellular proteins” (Fred Hutchinson Cancer Research Center, priority 2012, dated 2017).
Entries after “also recorded” stand apart in the source; their conditions may differ.

Experiments:
[1] = test system: PSC27 fibroblasts; experiment: Induction of DDSP factors in PSC27 fibroblasts with mTOR inhibition before ionizing radiation; format: cell-based, human; conditions: summary statement
Method: The effects of inhibiting mTOR signaling in the context of genotoxic stress was evaluated. PSC27 fibroblasts were treated with Rapamycin (RAPA) prior to ionizing radiation.

[2] = test system: PC#/PSC27 cells; experiment: Subcutaneous grafts of PC#/PSC27 cells treated with systemic RAPA and MIT; format: in vivo; conditions: RAPA used with MIT
[3] = test system: epithelial CaP cells; experiment: Src/SFK and Erk pathway activation in CaP cells on GDNF stimulation; format: cell-based, human; conditions: GDNF responsive cells
Method: (§1) To study the effect GDNF has on tumor growth, we have used two experimental approaches have been used. 1) the effect of purified GDNF on cell proliferation of epithelial cells was analyzed and 2) GDNF over-expressing and secreting human prostate fibroblasts were generated which can also be used in co-culture and in vivo experiments. […] GDNF can act in the absence of RET via GFRA1 activating SFK pathways or through the activation of the RET/GFRA1 complex activating the Ras/Raf/Erk pathway. In our experiments we determined that both pathways were activated in GDNF sensitive cell lines (FIG. 23B). […] The number of epithelial cell lines are being expanded and analyzed after GDNF stimulation. GDNF-activated SFK and Erk pathways can lead to reduced sensitivity to pro-apoptotic treatments or decrease drug sensitivity.

[4] = test system: PSC27 stromal cells; experiment: SFK and Ras/Raf/Erk pathway activation in PSC27 stromal cells on GDNF stimulation; format: cell-based, human
From the text: Stimulation of epithelial CaP cells with GDNF leads to the activation of the SFK and the Ras/Raf/Erk pathways (FIG. 25). To determine if the same pathways are involved in the pro-proliferative effect on the PSC27 stromal cells, PSC27 cells were stimulated with hrGDNF or conditioned medium from PSC27/iGDNF-V5 cells. […] Additional more downstream effector proteins potentially involved in these effects are also being examined.

[5] = test system: epithelial CaP cells; experiment: Proliferation of epithelial CaP cells on GDNF stimulation; format: cell-based, human
Method: as §1

Molecule: CO[C@H]1C[C@@H]2CC[C@@H](C)[C@@](O)(O2)C(=O)C(=O)N2CCCC[C@H]2C(=O)O[C@H]([C@H](C)C[C@@H]2CC[C@@H](OCCO)[C@H](OC)C2)CC(=O)[C@H](C)/C=C(\C)[C@@H](O)[C@@H](OC)C(=O)[C@H](C)C[C@H](C)/C=C/C=C/C=C/1C [RAD001]
- suppression of key DDSP proteins including Wnt16B [1]: effectively suppress

Molecule: CO[C@H]1C[C@@H]2CC[C@@H](C)[C@@](O)(O2)C(=O)C(=O)N2CCCC[C@H]2C(=O)O[C@H]([C@H](C)C[C@@H]2CC[C@@H](O)[C@H](OC)C2)CC(=O)[C@H](C)/C=C(\C)[C@@H](O)[C@@H](OC)C(=O)[C@H](C)C[C@H](C)/C=C/C=C/C=C/1C [RAPA, Rapamycin]
- reduction in tumor volumes [2]: approximately 60%

B1: GDNF: glial cell line-derived neurotrophic factor, purified / human recombinant protein used to stimulate cells (protein)
chain: SPDKQMAVLPRRERNRQAAAANPENSRGKGRRGQRGKNRGCVLTAIHLNVTDLGLGYETKEELIFRYCSGSCDAAETTYDKILKNLSRNRRLVSDKVGQACCRPIAFDDDLSFLDDNLVYHILRKHSAKRCGCI
- Src (SFK) and Erk (Ras/Raf/Erk) pathways [3]: activated; also recorded: activation
- Ras/Raf/Erk and SFK pathways in stromal cells [4]: stimulated; also recorded: activation
- proliferation of Ret and GFRA1 negative cells ([5]; after 3 or 5 days): did not show any increase in proliferation; also recorded: do not show any differences in proliferation
- GDNF concentration of maximum stimulation of proliferation ([5]; in the culture medium): around 10 ng/ml
- proliferation of cells expressing GDNF receptors Ret and/or GFRA1 ([5]; increasing concentrations of GDNF): induced cell proliferation; also recorded: increased proliferation
